From PMC7483473

Molecular target: mNeonGreen labeled metabotropic glutamate receptor 3, Q14832
Assay: stepwise photobleaching (subunit counting) of single complexes by TIRF; SPReAD: expressing cells co-plated with VSVG-U2OS cells (typically 10:1), fused at pH 5.5, syncytia fixed with 4% paraformaldehyde, room temperature; mGluR lines were HEK293T fused with U2OS
Settings: remark: other sources report otherwise

- fraction by stepwise photobleaching (dimer fraction, as the sentence seems to mean): 33.5%
B1: mNeonGreen labeled metabotropic glutamate receptor 3, Q14832 23-879 (receptor)
chain: LGDHNFLRREIKIEGDLVLGGLFPINEKGTGTEECGRINEDRGIQRLEAMLFAIDEINKDDYLLPGVKLGVHILDTCSRDTYALEQSLEFVRASLTKVDEAEYMCPDGSYAIQENIPLLIAGVIGGSYSSVSIQVANLLRLFQIPQISYASTSAKLSDKSRYDYFARTVPPDFYQAKAMAEILRFFNWTYVSTVASEGDYGETGIEAFEQEARLRNICIATAEKVGRSNIRKSYDSVIRELLQKPNARVVVLFMRSDDSRELIAAASRANASFTWVASDGWGAQESIIKGSEHVAYGAITLELASQPVRQFDRYFQSLNPYNNHRNPWFRDFWEQKFQCSLQNKRNHRRVCDKHLAIDSSNYEQESKIMFVVNAVYAMAHALHKMQRTLCPNTTKLCDAMKILDGKKLYKDYLLKINFTAPFNPNKDADSIVKFDTFGDGMGRYNVFNFQNVGGKYSYLKVGHWAETLSLDVNSIHWSRNSVPTSQCSDPCAPNEMKNMQPGDVCCWICIPCEPYEYLADEFTCMDCGSGQWPTADLTGCYDLPEDYIRWEDAWAIGPVTIACLGFMCTCMVVTVFIKHNNTPLVKASGRELCYILLFGVGLSYCMTFFFIAKPSPVICALRRLGLGSSFAICYSALLTKTNCIARIFDGVKNGAQRPKFISPSSQVFICLGLILVQIVMVSVWLILEAPGTRRYTLAEKRETVILKCNVKDSSMLISLTYDVILVILCTVYAFKTRKCPENFNEAKFIGFTMYTTCIIWLAFLPIFYVTSSDYRVQTTTMCISVSLSGFVVLGCLFAPKVHIILFQPQKNVVTHRLHLNRFSVSGTGTTYSQSSASTYVPTVCNGREVLDSTTSSL
